Data on one substance can be found in patent publication US20110129854A1.

Assay [1] deals with human cardiac troponin-I-T-C complex (human) (UniProt P63316). Nature of the assay: sandwich chemiluminescent immunoassay (…); detection 7G7 conjugate, capture M8020207 microparticles; human plasma spiked with cTnITC, nominal 42 pM cTnT as labelled in the table.
In assay [2] the target is Cardiac troponin-T (human) (UniProt P45379). Nature of the assay: sandwich chemiluminescent immunoassay (…); detection 7G7 conjugate, capture 7F4 microparticles; cTnT 2 ug/mL.
Assay [3] has the same target. Kind of assay: sandwich chemiluminescent immunoassay (…); detection 7G7 conjugate, capture 7F4 microparticles; cTnT 1 ug/mL.
For assay [4] the target is unchanged. Nature of the assay: sandwich chemiluminescent immunoassay (…); detection 7G7 conjugate, capture 1C11 microparticles; cTnT 2 ug/mL.
For assay [5] the target is unchanged. Nature of the assay: sandwich chemiluminescent immunoassay (…); detection 7G7 conjugate, capture 1C11 microparticles; cTnT 0.25 ug/mL.
Assay [6] concerns the target human cardiac troponin-I-T-C complex (human) (UniProt P63316). Kind of assay: sandwich chemiluminescent immunoassay (…); detection 7G7 conjugate 30 ng/mL, capture M8020207 microparticles; cTnITC standard, 14 pM cTnT.
The target in assay [7] is Cardiac troponin-T (human) (UniProt P45379). Kind of assay: sandwich chemiluminescent immunoassay (…); detection 7G7 conjugate, capture 1C11 microparticles; cTnT 0 ug/mL (blank).
For assay [8], the target named is human cardiac troponin-I-T-C complex (human) (UniProt P63316). Nature of the assay: sandwich chemiluminescent immunoassay (…); detection 7G7 conjugate 30 ng/mL, capture M8020207 microparticles; cTnITC standard, 279 pM cTnT.
For assay [9] the target is unchanged. Kind of assay: sandwich chemiluminescent immunoassay (…); detection 7G7 conjugate 30 ng/mL, capture M8020207 microparticles; cTnITC standard, 42 pM cTnT.
Assay [10] has the same target. Nature of the assay: sandwich chemiluminescent immunoassay (…); detection 7G7 conjugate, capture M8020207 microparticles; human plasma spiked with cTnITC, nominal 7 pM cTnT.
The target in assay [11] is Cardiac troponin-T (human) (UniProt P45379). Kind of assay: sandwich chemiluminescent immunoassay (…); detection 7G7 conjugate, capture M8020207 microparticles; cTnT 0.5 ug/mL.
The target is the same in assay [12]. Nature of the assay: sandwich chemiluminescent immunoassay (…); detection 7G7 conjugate, capture 1C11 microparticles; cTnT 0.5 ug/mL.
For assay [13] the target is unchanged. Nature of the assay: sandwich chemiluminescent immunoassay (…); detection 7G7 conjugate, capture M8020207 microparticles; cTnT 0.25 ug/mL.
The target of assay [14] is human cardiac troponin-I-T-C complex (human) (UniProt P63316). Kind of assay: sandwich chemiluminescent immunoassay (…); detection 7G7 conjugate, capture M8020207 microparticles; negative human plasma without spiked cTnITC (blank).
Assay [15] has as its target Cardiac troponin-T (human) (UniProt P45379). Kind of assay: sandwich chemiluminescent immunoassay (…); detection 7G7 conjugate, capture M8020207 microparticles; cTnT 1 ug/mL.
Assay [16] shares this target. Nature of the assay: sandwich chemiluminescent immunoassay (…); detection 7G7 conjugate, capture M8020207 microparticles; cTnT 2 ug/mL.
For assay [17] the target is unchanged. Nature of the assay: sandwich chemiluminescent immunoassay (…); detection 7G7 conjugate, capture 1C11 microparticles; cTnT 1 ug/mL.
The target is the same in assay [18]. Kind of assay: sandwich chemiluminescent immunoassay (…); detection 7G7 conjugate, capture 7F4 microparticles; cTnT 0.5 ug/mL.
Assay [19] shares this target. Kind of assay: sandwich chemiluminescent immunoassay (…); detection 7G7 conjugate, capture 7F4 microparticles; cTnT 0 ug/mL (blank).
Assay [20] has the same target. Nature of the assay: sandwich chemiluminescent immunoassay (…); detection 7G7 conjugate, capture M8020207 microparticles; cTnT 0 ug/mL (blank).
For assay [21] the target is unchanged. Kind of assay: sandwich chemiluminescent immunoassay (…); detection 7G7 conjugate, capture 7F4 microparticles; cTnT 0.25 ug/mL.
Assay [22] addresses human cardiac troponin-I-T-C complex (human) (UniProt P63316). Nature of the assay: sandwich chemiluminescent immunoassay (…); detection 7G7 conjugate 30 ng/mL, capture M8020207 microparticles; cTnITC standard, 7 pM cTnT.
The target is the same in assay [23]. Kind of assay: sandwich chemiluminescent immunoassay (…); detection 7G7 conjugate 30 ng/mL, capture M8020207 microparticles; cTnITC standard, 0 pM cTnT (blank).

Take “Murine anti-cardiac troponin-T 7G7 acridinium-9-carboxamide conjugate (antibody)”: the RLU in assay [1] stood at 74100 RLU; in assay [2] it was 46800 RLU; in [3], 29900 RLU; in assay [4] it was 311000 RLU; in assay [5], 79400 RLU; in [6], 28100 RLU. The RLU in assay [7] was 317 RLU; in assay [8] it was 423000 RLU; in assay [9] it was 81500 RLU; in [10], 13800 RLU; in [11], 164000 RLU; in assay [12], 149000 RLU. Further, the RLU stood at 96200 RLU in assay [13]; 2070 RLU in assay [14]; 251000 RLU in [15]; 305000 RLU in assay [16]; 238000 RLU in assay [17]; 17200 RLU in assay [18]. Also, the RLU in assay [19] was 333 RLU; in assay [20], 338 RLU; in [21] it was 9080 RLU; in assay [22] it was 15300 RLU; in assay [23], 2370 RLU.
